Assays:
Type in all cases: biochemical
Conditions in all cases: glycoproteins at 10 mg/ml
Bovine milk β4Gal-T = biological target: T1, Bovine milk β4Gal-T (Bos taurus, UniProt P08037); experiment: Bovine milk β4Gal-transferase activity assay (control enzyme)
T1 construct: Purified bovine milk enzyme; purchased Sigma; host or cells: bovine milk
T1 sequence (P08037 79-402 limits assumed): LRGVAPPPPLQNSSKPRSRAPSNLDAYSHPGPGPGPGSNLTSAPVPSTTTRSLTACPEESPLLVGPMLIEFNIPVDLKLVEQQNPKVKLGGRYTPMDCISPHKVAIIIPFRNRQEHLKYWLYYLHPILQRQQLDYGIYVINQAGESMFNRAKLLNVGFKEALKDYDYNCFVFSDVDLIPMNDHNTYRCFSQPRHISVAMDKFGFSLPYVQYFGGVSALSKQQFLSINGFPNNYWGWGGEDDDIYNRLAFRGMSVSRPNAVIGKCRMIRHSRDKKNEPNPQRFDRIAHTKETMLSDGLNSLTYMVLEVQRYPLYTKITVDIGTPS
Protocol: (§1) Standard assays were performed in […] total reaction mixtures containing 25 mM Tris (pH 7.5), 10 mM MnCl2, 0.25% Triton X-100, […] UDP-[^14C]-Gal (2,300 cpm/nmol) (Amersham), and varying concentration of acceptor substrates (Sigma) (see Table I for structures). The soluble constructs were assayed with […] of culture supernatant from infected cells, whereas the full length construct was assayed with 1% Triton X-100 homogenates of washed cells. Bovine milk P1,4Gal-transferase (Sigma) was used as control.
(§2) Reaction products were quantified by Dowex-1 chromatography. Assays with hen egg Ovalbumin (Sigma), asialo-fetuin (Sigma), and asialo-agalacto-fetuin (Sigma, treated with bgalactosidase) were performed with the standard reaction mixture modified to contain […] UDP-Gal, 54 mM NaCl, and 0.5 mg Ovalbumin. The transfer of Gal was evaluated after precipitation by filtration through Whatman GF/C glass fiber filters.

β4Gal-T2 = biological target: T2, β4Gal-T2 (Homo sapiens, UniProt O60909); experiment: β4Gal-T2 galactosyltransferase activity assay (soluble enzyme, media of infected Sf9 cells)
T2 construct: An expression construct designed to encode amino acid residues 31-372 of β4Gal-T2 was prepared by RT-PCR; secretion signal of vector pAcGP67 (gp67 leader; own knowledge of the vector) (N); made in house; host or cells: Sf9 (Spodoptera frugiperda) cells, baculovirus; unpurified culture supernatant
T2 sequence (O60909 31-372): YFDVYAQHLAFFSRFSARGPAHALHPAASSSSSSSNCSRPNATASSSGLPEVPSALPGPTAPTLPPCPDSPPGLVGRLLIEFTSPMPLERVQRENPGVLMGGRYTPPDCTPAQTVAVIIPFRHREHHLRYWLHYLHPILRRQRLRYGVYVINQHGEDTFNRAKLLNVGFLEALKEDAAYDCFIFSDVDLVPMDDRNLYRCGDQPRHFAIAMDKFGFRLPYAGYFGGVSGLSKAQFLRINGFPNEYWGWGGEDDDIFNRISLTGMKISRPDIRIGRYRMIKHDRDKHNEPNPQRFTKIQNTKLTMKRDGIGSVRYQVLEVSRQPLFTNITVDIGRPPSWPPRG
Description: (§3) The PCR product were cloned into the BamHI site of pAcGP67 (Pharmingen), and the construct sequenced to verify correct insertion and sequence. The plasmid pAcGP67-β4Gal-T2-sol was co-transfected with Baculo-Goldä DNA (Pharmingen) as described previously (Bennett et al., 1996). Recombinant Baculo-virus were obtained after two successive amplifications in Sf9 cells grown in serum-containing medium, and titres of virus were estimated by titration in 24-well plates with monitoring of enzyme activities. Controls included pAcGP67-β4Gal-T3-sol (Almeida et al., 1997) and pAcGP67-GalNAc-T3-sol (Bennett et al., 1996).
as §1
Reaction products were quantified by Dowex-1 chromatography. […] The transfer of Gal was evaluated after precipitation by filtration through Whatman GF/C glass fiber filters.

β4Gal-T3 = biological target: T3, β4Gal-T3 (Homo sapiens, UniProt O60512); experiment: β4Gal-T3 galactosyltransferase activity assay (soluble enzyme, Sf9 media)
T3 construct: media from Sf9 cells expressing secreted forms of either β4Gal-T2 or -T3 were used as enzyme sources; secretion signal of vector pAcGP67 (gp67 leader; own knowledge of the vector) (N); made in house; host or cells: Sf9 cells, baculovirus; unpurified culture supernatant
T3 sequence (O60512 32-393 limits assumed): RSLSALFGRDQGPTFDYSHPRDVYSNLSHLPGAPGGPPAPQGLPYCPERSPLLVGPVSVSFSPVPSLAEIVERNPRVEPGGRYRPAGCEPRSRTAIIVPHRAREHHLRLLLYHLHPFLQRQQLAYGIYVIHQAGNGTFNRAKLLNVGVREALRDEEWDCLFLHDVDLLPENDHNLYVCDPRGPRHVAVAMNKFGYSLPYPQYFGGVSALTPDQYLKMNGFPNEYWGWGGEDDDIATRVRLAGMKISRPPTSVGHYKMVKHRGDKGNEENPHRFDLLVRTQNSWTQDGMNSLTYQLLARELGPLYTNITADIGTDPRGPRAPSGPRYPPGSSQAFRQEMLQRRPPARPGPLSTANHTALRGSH
Protocol: as §3, with “An expression construct designed to encode amino acid residues 31-372 of β4Gal-T2 was prepared by RT-PCR with mRNA from Colo205 cell line, using the primer pair EBER100FOR (5′-[…]; SEQ ID NO: 9) and EBER114 (5′-[…]; SEQ ID NO: 10) with BamH1 restriction sites (FIG. 2). The PCR” for “The PCR”
as §1, §2

Bovine milk β4Gal-T activity with acceptor substrate (Bovine milk β4Gal-T): 0.7 nmol/min/µg | β4Gal-T2 activity with acceptor substrate (β4Gal-T2): 2.0 nmol/min/mL | β4Gal-T3 activity with acceptor substrate (β4Gal-T3): 1.0 nmol/min/mL
B1: Hen egg albumin: glycoprotein acceptor, hen egg Ovalbumin (Sigma) (protein, UniProt P01012 2-386, looked up)
Ovalbumin: GSIGAASMEFCFDVFKELKVHHANENIFYCPIAIMSALAMVYLGAKDSTRTQINKVVRFDKLPGFGDSIEAQCGTSVNVHSSLRDILNQITKPNDVYSFSLASRLYAEERYPILPEYLQCVKELYRGGLEPINFQTAADQARELINSWVESQTNGIIRNVLQPSSVDSQTAMVLVNAIVFKGLWEKAFKDEDTQAMPFRVTEQESKPVQMMYQIGLFRVASMASEKMKILELPFASGTMSMLVLLPDEVSGLEQLESIINFEKLTEWTSSNVMEERKIKVYLPRMKMEEKYNLTSVLMAMGITDVFSSSANLSGISSAESLKISQAVHAAHAEINEAGREVVGSAEAGVDAASVSEEFRADHPFLFCIKHIATNAVLFFGRCVSP

Source: patent US7374919B2 (GlycoZym ApS, priority 1998, dated 2008)
